Reference: patent publication US20100189722A1 (Boehringer Ingelheim, published 2010)

T1: CD37 antigen (cellular CD37 on Ramos Burkitt lymphoma cells; also on RPMI 8226 multiple myeloma cells) (human, UniProt P11049 1-281)
T1 sequence (looked up): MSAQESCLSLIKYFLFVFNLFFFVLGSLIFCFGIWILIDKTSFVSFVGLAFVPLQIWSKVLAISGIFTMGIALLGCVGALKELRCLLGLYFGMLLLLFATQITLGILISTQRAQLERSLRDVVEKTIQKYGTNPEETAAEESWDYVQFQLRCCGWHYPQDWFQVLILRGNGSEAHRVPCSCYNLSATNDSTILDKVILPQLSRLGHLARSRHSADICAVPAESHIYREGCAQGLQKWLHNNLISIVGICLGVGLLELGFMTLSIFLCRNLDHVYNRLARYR


Molecular target: T1, CD37 antigen (cellular CD37 on Ramos …)
Test: cell-based or functional assay

Row | Binder | ADCC EC50 on RPMI 8226 multiple myeloma cells
1 | Fc-engineered humanized anti-CD37 antibody B2 (S239D/I332E) (antibody, human IgG1, kappa, V domains shown) VH: AVQLVQSGAEVKKPGSSVKVSCKASGYSFTGYNMNWVRQAPGQGLEWMGNIDPYYGGTTYNRKFKGRVTLTVDKSSSTAYMELSSLRSEDTAVYYCARSVGPMDYWGQGTLVTVSS VL: DIQMTQSPSSLSASVGDRVTITCRTSENVYSYLAWYQQKPGKAPKLLVSFAKTLAEGVPSRFSGSGSGTDFTLTISSLQPEDFATYFCQHHSDNPWTFGQGTKVEIKR | ~0.025 µg/mL
2 | Fc-engineered chimeric anti-CD37 antibody A2 (S239D/I332E) (antibody, human IgG1, kappa) heavy: not shown light: DIQMTQSPASLSASVGETVTITCRTSENVYSYLAWYQQKQGKSPQLLVSFAKTLAEGVPSRFSGSGSGTQFSLKISSLQPEDSGSYFCQHHSDNPWTFGGGTELEIKRTVAAPSVFIFPPSDEQLKSGTASVVCLLNNFYPREAKVQWKVDNALQSGNSQESVTEQDSKDSTYSLSSTLTLSKADYEKHKVYACEVTHQGLSSPVTKSFNRGEC | ~0.025 µg/mL
